Assay results published in patent US20100199379.

System: T1, Medicago sativa NAP1-like protein, 6×HIS-tagged, expressed in BL21 E. coli and purified on nickel agarose
T1 sequence: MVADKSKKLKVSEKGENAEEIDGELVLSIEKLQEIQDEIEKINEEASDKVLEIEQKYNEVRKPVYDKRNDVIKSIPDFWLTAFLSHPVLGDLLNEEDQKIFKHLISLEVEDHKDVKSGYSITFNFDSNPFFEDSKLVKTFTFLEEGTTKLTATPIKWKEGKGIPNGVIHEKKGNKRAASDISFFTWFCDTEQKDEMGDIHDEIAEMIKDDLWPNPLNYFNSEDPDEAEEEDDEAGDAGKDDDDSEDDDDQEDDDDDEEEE

Protein Phosphatase 2A (PP2A) catalytic subunits purified from rabbit skeletal muscle
PP2A activity on the phospho-histone H2A substrate (in vitro dephosphorylation of 32P-labelled substrate): already 2.5 mM concentration of the NAP1-like protein efficiently inhibited PP2A activity on the phospho-histonH2A substrate (50% decrease in activity)
PP2A dephosphorylation of glycogen phosphorylase (in vitro, 32P-labelled substrate): the NAP1-like protein had no influence on the dephosphorylation of the glycogen phosphorylase even at 500 mM concentration
